From a protein production outcome set (Wang et al. 2014) come the findings set out here.

The nature of this data set: label from the status in PepcDB records.

For “MTTKLDQLTSWLKERKITEVECLISDLTGIARGKISPTNKFIAEKGMRLPESVLLQTVTGDYVEDDIYYDLLDPADIDMVCRPDENAVFLVPWAIEPTAMVIHDTFDKLGNPIELSPRNILKRVLKMYADKGWRPIVAPEMEFYLTKRSDDPDYPLQAPVGRSGRQETGRQSFSIDAANEFDPLFEDMYDWCEAQGLDLDTLIHEEGTAQMEINFRHGDALDLADQILVFKRTMREAALKHNVAATFMAKPMTGEPGSAMHLHQSIVDVKTGKNIFSNADGTMSELFLHHIGGLQKFIPEVLPLFAPNVNSFRRFLPDTSAPVNVEWGEENRTVGLRVPDSSPENRRVENRLAGADANPYLALAASLLCGYIGMVEGIKPSAQVKGRGYERRNLRLPLTIEAALERMENCKPLEQYLGSKFISGYVAVKRAEHENFKRVISSWEREFLLLS”, the protein production result was “failed”. As for “MTTLKLFDIEHAWGLPRKVSPRFGARLILRGLHLDYLHDRASFVGEFPPAIKQQFVEAFPAMVKQLERLVATGEIDTTEQHCVSIEHAGFTCEADTLGSHGYLYIAIYQTKAKPLTTSNLTITRLEHHHHHH”, the protein production entry was “failed”. On to “MTTLTRQDLNFGQVVADVLSEFLEVAVHLILYVREVYPVGIFQKRKKYNVPVQMSCHPELNQYIQDTLHCVKPLLEKNDVEKVVVVILDKEHRPVEKFVFEITQPPLLSINSDSLLSHVEQLLRAFILKISVCDAVLDHNPPGCTFTVLVHTREAATRNMEKIQVIKDFPWILADEQDVHMHDPRLIPLKTMTSDILKMQLYVEERAHKNS”, for which the protein production result was “not failed”. Take “MTTMQQRYDAVKDAMAQIGRLAAQLDGEALREAIGPVLVALGERDELFPRDEFPIRAGKPGGLYQLWRGESGDLALYASAGKTGKKQPPHDHTTWAVIAGVYGEEHNVFFERTDDGSRAGFGTLRQIDALTVVQGNAARLSGEVFHTIEVVSEEDSLHLHLHLYGRALDTLSGRINFATEEGGAYTRFMAVPETYAPWIAPRDLYEMLTDGGELAILDVRENGVYTQGHLFHAASMPLSVFELRVDDGLPSPHVRIVVIDDADGLAEQAVRLLHQRGYHNVAVLQGGQPGWNAAGLPVYTGVFVPSKAFGEVAEHVYGTPSISAVELDALRRSEEVLVLDSRTEQEFNLMSVPGAYSCPGAELVARALDHAGPIVVNCAGRTRSIIGAQSLRNAGKTDVRALENGTMGQHLAGLPLERGKSASYLDRPVAAGAAQAAQAWALGMSIATLDAGELHDMLSNPYRTTYLFDARDPSCSSRATLPRAVAAPGGQLVQQTDYYAPVRNARIVVFDTDGVQAPMTAGWLHQMGWEVYLHRPEATALVAPPRVEYDDERGVPVEAVAADAVIIDVGDSRTYRAGHLAGAAWAPRSRLPALLAQRKPAGPLLFTCADGRVSRLAAADAAAQGYQAAYLKGGTAALGADRLRGDAPQFLTEAIDVWYRPYDRETGIEEAMHQYLSWETGLLDKVRSDPTVAFRI”: the protein production result is on record as “failed”.

On to “MTTMVNVDTLPEYEKSQIKRALELGTVMTVFNARKSTPERRTVQMIMETRQVAWSKTADKIEGFLDIMEIKEIRPGKNSKDFERAKAVRHKAECCFTILYGTQFVLSTLSLATDSKEDAVKWLSGLKILHQEAMSASTPTMIESWLRKQIYSVDQTRRNSISLRELKTILPLVNFKVSGIKFLKDKLVEIGAQKDELSFEQFHLFYKKLMFDQQKSILDEFKKDSSVFILGNTDRPDASAVYLQDFQRFLLHEQQELWAQDLNKVRERMTKFIDDTMRETAEPFLFVDEFLTYLFSRENSIWDEKYDAVDMQDMNNPLSHYWISSSHNTYLTGDQLRSESSTEAYIRCLRAGCRCIELDCWDGPDGKPIIYHGWTRTTKIKFDDVVQAIRDHAFVTSSFPVILSIEEHCSVEQQRHMAKVFKEVLGDMLLTKPTEASADQLPSPSQLREKIIIKHKKLGPKGDVDVNVEDKKDEHKPQGELYMWDSIDQKWTRHYCAIADAKLSFGDDIEQAVEEEPVQDTPPTELHFGEKWFHKKVESRTSAEKLLQEYCAETGAKDGTFLVRESETFPNDYTLSFWRSGRVQHCRIRSTMENGVMKYYLTDNLTFNSIYALIQHYREAHLRCAEFELRLTDPVPNPNPHESKPWYYDSLSRGEAEDMLMRIPRDGAFLIRKREGTNSYAITFRARGKVKHCRINRDGRHFVLGTSAYFESLVELVSYYEKHALYRKMRLRYPVTPELLERYNMERDINSLYDVSRMYVDPSEINPSMPQRTVKALYDYKAKRSDELTFCRGALIHNVSKEPGGWWKGDYGTRIQQYFPSNYVEDISAGDAEEMEKQIIEDNPLGSLCKGILDLNTYNVVKAPQGKNQKAFVFILEPKKQGDPPVEFATDRVEELFEWFQSIREITWKMDTKENNMKYWERNQSIAIELSDLVVYCKPTSKTKDHLENPDFREIRSFVETKADSIVRQKPVDLLRYNQKGLTRVYPKGQRVDSSNYDPFRLWLCGSQMVALNFQTPDKYMQMNHALFSLNGRTGYVLQPESMRSEKYDPMPLESQRKILMTLTVKVLGARHLPKLGRSIACPFVEVEICGAEYDSNKFKTTVVNDNGLSPVWAPTQEKVTFEIYDPNLAFLRFVVYEEDMFSDPNFLAHATYPIKGIKSGFRSVPLKNGYSEDIELASLLVFCEMRPVLESEEELYSSCRQLRRRQEELNNQLFLYDTHQNLRGANRDALVKEFNVNENQLQLYQEKCNRRLREKRVSNSRFYS”, for which the protein production entry was “not failed”.

Turning to “MTTNTIMEQEARTAPQKIAEQLLANDAITESLGSVLREFKPKFVMIVGRGSSDHAGVFAKYLFEIEASIPTFAAAPSVASVYGKTLKLAGGLVIVISQSGRSPDILAQARMAKNAGAFCVALVNDETAPIKDIVDVVIPLRAGEEKAVAATKSYLATLSALLQVAAKWTQNESLVEAVNSLPQALQAAVDAEPQLRAGSLTDVKNLVVLGRGFGYAVSKEIALKLKEVCAIHAEAFSSAEFLHGPVTLVEKKLSILDVCIRDESYGSHVEQIANVKQRGANLIHLHQTSADIHPRIAPLALLQRFYIDVAAVAIALGINPDKPAGLKKVTQTL”, the protein production result is “not failed”.

As to “MTTPIRVVVWNEFRHEKKDEQVRAIYPEGMHTVIASYLAEAGFDAATAVLDEPEHGLTDEVLDRCDVLVWWGHIAHDEVKDEVVERVHRRVLEGMGLIVLHSGHFSKIFKKLMGTTCNLKWREADEKERLWVVAPGHPIVEGIGPYIELEQEEMYGEFFDIPEPDETIFISWFEGGEVFRSGCTFTRGKGKIFYFRPGHETYPTYHHPDVLKVIANAVRWAAPVNRGEIVFGNVKPLEPIKAKQGGVTQ”, the protein production entry is on record as “not failed”. Next, “MTTPVDAPKWPRQIPYIIASEACERFSFYGMRNILTPFLMTALLLSIPEELRGAVAKDVFHSFVIGVYFFPLLGGWIADRFFGKYNTILWLSLIYCVGHAFLAIFEHSVQGFYTGLFLIALGSGGIKPLVSSFMGDQFDQSNKSLAQKAFDMFYFTINFGSFFASLSMPLLLKNFGAAVAFGIPGVLMFVATVFFWLGRKRYIHMPPEPKDPHGFLPVIRSALLTKVEGKGNIGLVLALIGGVSAAYALVNIPTLGIVAGLCCAMVLVMGFVGAGASLQLERARKSHPDAAVDGVRSVLRILVLFALVTPFWSLFDQKASTWILQANDMVKPQWFEPAMMQALNPLLVMLLIPFNNFVLYPAIERMGVKLTALRKMGAGIAITGLSWIVVGTIQLMMDGGSALSIFWQILPYALLTFGEVLVSATGLEFAYSQAPKAMKGTIMSFWTLSVTVGNLWVLLANVSVKSPTVTEQIVQTGMSVTAFQMFFFAGFAILAAIVFALYARSYQMQDHYRQAT”: “failed”. Next, “MTTRRLALFDLDHTLLPLDSDYQWADFLARTGRAGDPAEARRRNDDLMERYNRGELTAEQAAEFMLGLLAAHSPVELAAWHEEFMRDVIRPSLTVQAVDVVRGHLAAGDLCALVTATNSFVTAPIARAFGVQHLIATDPEYRDGRYTGRIEGTPSFREGKVVRVNQWLAGMGLALGDFAESYFYSDSVNDVPLLEAVTRPIAANPSPGLREIAQARGWQVIDLFDHLEDAKS”: “not failed”.
